Measurements: the supplement of paper PMC10724198
± gives the standard deviation of the averaged measurements.

What was measured:
Saccharomyces cerevisiae [1] = assay: protein stability index of tFT-peptide fusion (C-terminal peptide) (PSI (0-1 scale)); higher = more stable (slower turnover)
Protocol: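 MPS profiling in S. cerevisiae of the tFT-X12 degron library: putative degron peptides plus stable controls, 12 aa, fused to the C-terminus of a sfGFP-mCherry timer. Cells are FACS-sorted into 8 mCherry/sfGFP bins and deep-sequenced. PSI runs from 0 (unstable) to 1 (stable). Backgrounds are wild type, das1Δ and doa10Δ at 30 °C, and wild type, das1Δ, cdc34-1 and cdc53-1 at 37 °C; 2-3 technical replicates each.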

Saccharomyces cerevisiae [2] = assay: as above; conditions: genetic background: wild type; temperature: 30 C
[3] = genetic background: cdc34-1, temperature: 37 C
[4] = genetic background: cdc53-1, temperature: 37 C
[5] = genetic background: das1 deletion, temperature: 30 C
[6] = genetic background: das1 deletion, temperature: 37 C
[7] = genetic background: doa10 deletion, temperature: 30 C
[8] = genetic background: wild type, temperature: 30 C
[9] = genetic background: wild type, temperature: 37 C
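Note: PSI is a weighted mean of sequencing reads over stability bins, variants kept only with over 10 reads, mCherry proximal and sfGFP distal, peptide attached via GGGS linker.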

Sequence	protein stability index (Saccharomyces cerevisiae [1]; [3])	protein stability index (Saccharomyces cerevisiae [1]; [4])	protein stability index (Saccharomyces cerevisiae [1]; [5])	protein stability index (Saccharomyces cerevisiae [1]; [6])	protein stability index (Saccharomyces cerevisiae [1]; [7])	protein stability index (Saccharomyces cerevisiae [1]; [8])	protein stability index (Saccharomyces cerevisiae [1]; [9])	protein stability index (Saccharomyces cerevisiae [2])
TYCFRVCAWRAN	0.603 ± 0.049	0.706 ± 0.021	0.583 ± 0.0094	0.677 ± 0.012	0.176 ± 0.0011	0.208 ± 0.026	0.396 ± 0.017	0.341 ± 0.016
VFGSRCLLTVVV	0.472 ± 0.0098	0.477 ± 0.023	0.367 ± 0.032	0.5185 ± 0.0017	0.336 ± 0.018	0.358 ± 0.043	0.504 ± 0.0071	0.438 ± 0.043
SRGLVPMANRYC	0.659 ± 0.07	0.7383 ± 0.0028	0.656 ± 0.03	0.741 ± 0.018	0.142 ± 0.0075	0.16 ± 0.02	0.42 ± 0.014	0.298 ± 0.045
WACAWRGMVKVG	0.202 ± 0.021	0.245 ± 0.0068	0.232 ± 0.034	0.38 ± 0.0041	0.0812 ± 0.0095	0.0897 ± 0.021	0.0811 ± 0.0041	0.156 ± 0.018
QDFFYCLLVATS	0.155 ± 0.0058	0.276 ± 0.015	0.21 ± 0.038	0.3605 ± 0.003	0.174 ± 0.0022	0.205 ± 0.03	0.305 ± 0.0038	0.317 ± 0.029
QLGGKVGNCHVV	0.683 ± 0.046	0.7507 ± 0.0047	0.6644 ± 0.0051	0.732 ± 0.025	0.668 ± 0.05	0.652 ± 0.009	0.715 ± 0.034	0.75 ± 0.021
LAPSRNRSVWLV	0.591 ± 0.015	0.7308 ± 0.002	0.649 ± 0.016	0.74 ± 0.0098	0.104 ± 0.012	0.119 ± 0.018	0.199 ± 0.0086	0.247 ± 0.036
SLSCYSFFVLAL	0.513 ± 0.035	0.543 ± 0.027	0.404 ± 0.03	0.534 ± 0.0054	0.391 ± 0.014	0.401 ± 0.025	0.51315 ± 0.00015	0.482 ± 0.0072
IMWCSSVSEVQW	0.538 ± 0.075	0.582 ± 0.0064	0.472 ± 0.027	0.518 ± 0.0069	0.492 ± 0.03	0.494 ± 0.047	0.5016 ± 0.0029	0.4741 ± 0.0032
SYVLLQSYVSLV	0.566 ± 0.017	0.623 ± 0.016	0.474 ± 0.0091	0.643 ± 0.016	0.318 ± 0.016	0.352 ± 0.029	0.613 ± 0.083	0.451 ± 0.021
RGGVCFVVWCGG	0.46 ± 0.03	0.503 ± 0.095	0.435 ± 0.0077	0.475 ± 0.029	0.4305 ± 0.00076	0.432 ± 0.0053	0.441 ± 0.0061	0.429
LSFFDYVLLQIA	0.556 ± 0.03	0.58 ± 0.029	0.462 ± 0.032	0.635 ± 0.0073	0.166 ± 0.013	0.199 ± 0.028	0.317 ± 0.027	0.285 ± 0.01
YFVLVRLICFLL	0.347 ± 0.0092	0.438 ± 0.0066	0.289 ± 0.035	0.472 ± 0.01	0.194 ± 0.011	0.216 ± 0.039	0.373 ± 0.013	0.244 ± 0.085
SLVIVLPALIFL	0.463 ± 0.026	0.545 ± 0.013	0.393 ± 0.013	0.569 ± 0.014	0.408 ± 0.0052	0.401 ± 0.024	0.522 ± 0.014	0.467 ± 0.035
VMLIRVSRGIKC	0.359 ± 0.044	0.463 ± 0.13	0.293 ± 0.024	0.4846 ± 0.0047	0.242 ± 0.0097	0.29 ± 0.038	0.473 ± 0.0067	0.41 ± 0.0097
SLPIFSGVASVR	0.677 ± 0.014	0.737 ± 0.033	0.64 ± 0.028	0.778 ± 0.0013	0.642 ± 0.043	0.649 ± 0.035	0.728 ± 0.011	0.694 ± 0.022
CWLFCACFVRLV	0.125 ± 0.014	0.154 ± 0.0052	0.211 ± 0.019	0.333 ± 0.015	0.0691 ± 0.0032	0.0636 ± 0.0022	0.07618 ± 0.00043	0.101 ± 0.0076
ILRKTAFRLRVL	0.623 ± 0.047	0.635 ± 0.0073	0.525 ± 0.011	0.658 ± 0.023	0.228 ± 0.016	0.264 ± 0.024	0.376 ± 0.01	0.397 ± 0.025
ACCGVFFFFFWL	0.403 ± 0.029	0.479 ± 0.018	0.366 ± 0.031	0.414 ± 0.016	0.363 ± 0.0061	0.35 ± 0.02	0.433 ± 0.031	0.404 ± 0.018
IWIRLGSENTVI	0.7085 ± 0.0014	0.7221 ± 0.007	0.646 ± 0.036	0.7489 ± 0.00087	0.672 ± 0.026	0.653 ± 0.032	0.78 ± 0.015	0.443 ± 0.22

Sequence	protein stability index (Saccharomyces cerevisiae [1]; [3])	protein stability index (Saccharomyces cerevisiae [1]; [4])	protein stability index (Saccharomyces cerevisiae [1]; [5])	protein stability index (Saccharomyces cerevisiae [1]; [6])	protein stability index (Saccharomyces cerevisiae [1]; [7])	protein stability index (Saccharomyces cerevisiae [1]; [8])	protein stability index (Saccharomyces cerevisiae [1]; [9])	protein stability index (Saccharomyces cerevisiae [2])
WLFTSVTVFTFL	0.21366 ± 0.00013	0.299 ± 0.02	0.221 ± 0.023	0.421 ± 0.021	0.181 ± 0.0045	0.196 ± 0.013	0.347 ± 0.016	0.296 ± 0.045
AQLVYVITAVRT	0.452 ± 0.017	0.458 ± 0.024	0.333 ± 0.031	0.569 ± 0.026	0.291 ± 0.025	0.315 ± 0.019	0.507 ± 0.029	0.42 ± 0.029
MALAVRVVTCGA	0.185 ± 0.014	0.297 ± 0.075	0.228 ± 0.036	0.363 ± 0.014	0.191 ± 0.0047	0.223 ± 0.031	0.313 ± 0.015	0.375 ± 0.076
FALFLFFGPLIV	0.435 ± 0.066	0.486 ± 0.012	0.301 ± 0.056	0.52344 ± 0.00026	0.335 ± 0.019	0.331 ± 0.011	0.4857 ± 0.0017	0.4287 ± 0.0032
ENKGGNQKRRKK	0.686 ± 0.048	0.743 ± 0.056	0.628 ± 0.056	0.736 ± 0.012	0.646 ± 0.014	0.635 ± 0.021	0.698 ± 0.035	0.559 ± 0.18
CCSRYLSNLCPI	0.674 ± 0.052	0.751 ± 0.036	0.631 ± 0.016	0.7263 ± 0.0048	0.657 ± 0.033	0.648 ± 0.0072	0.726 ± 0.017	0.0813 ± 0.051
IFFSLFFFFLCN	0.353 ± 0.06	0.413 ± 0.0066	0.356 ± 0.027	0.526 ± 0.068	0.35 ± 0.03	0.289 ± 0.011	0.4212 ± 0.0014	0.35 ± 0.056
SCGVYVVFVLVE	0.0658 ± 0.027	0.133 ± 0.047	0.16 ± 0.042	0.294 ± 0.006	0.128 ± 0.026	0.152 ± 0.022	0.246 ± 0.0014	0.286 ± 0.16
LGNVTDVMHRLS	0.645 ± 0.038	0.739 ± 0.0094	0.6481 ± 0.0036	0.734 ± 0.023	0.328 ± 0.0097	0.379 ± 0.012	0.617 ± 0.012	0.48 ± 0.0083
RLMVHQHTIPVR	0.463 ± 0.072	0.54 ± 0.016	0.307 ± 0.037	0.559 ± 0.021	0.276 ± 0.035	0.316 ± 0.0095	0.533 ± 0.0081	0.4449 ± 0.0039
GWLSVLVYFLSG	0.471 ± 0.025	0.545 ± 0.03	0.387 ± 0.034	0.5619 ± 0.0042	0.284 ± 0.0044	0.326 ± 0.0091	0.481 ± 0.022	0.408 ± 0.03
RPGRWFCFLYCV	0.382 ± 0.063	0.4311 ± 0.002	0.418 ± 0.022	0.532 ± 0.011	0.163 ± 0.01	0.141 ± 0.017	0.233 ± 0.0093	0.185 ± 0.005
EWLITLRKCGVA	0.606 ± 0.03	0.613 ± 0.011	0.478 ± 0.026	0.6107 ± 0.006	0.397 ± 0.0075	0.423 ± 0.027	0.533 ± 0.006	0.463 ± 0.048
LGVVLFCFRFCR	0.464 ± 0.0074	0.556 ± 0.028	0.391 ± 0.022	0.598 ± 0.022	0.353 ± 0.0068	0.371 ± 0.027	0.543 ± 0.019	0.477 ± 0.005
FVVIFRFSRFSA	0.419 ± 0.12	0.477 ± 0.012	0.336 ± 0.025	0.512 ± 0.018	0.313 ± 0.0064	0.326 ± 0.0097	0.494 ± 0.037	0.39 ± 0.0004
YPLISVSLPCPS	0.533 ± 0.018	0.6067 ± 0.0052	0.396 ± 0.042	0.585 ± 0.015	0.349 ± 0.005	0.404 ± 0.023	0.544 ± 0.016	0.489 ± 0.012
WLALSFFSFFFC	0.654 ± 0.014	0.7221 ± 0.00075	0.588 ± 0.025	0.6825 ± 0.0042	0.577 ± 0.047	0.57 ± 0.026	0.66 ± 0.02	0.588 ± 0.19
CSFELSVCLMLR	0.063 ± 0.0088	0.07758 ± 0.00064	0.133 ± 0.013	0.198 ± 0.016	0.557 ± 0.015	0.107 ± 0.007	0.1855 ± 0.0013	0.188 ± 0.032
GWIFFYFTWFVG	0.127 ± 0.018	0.236 ± 0.025	0.198 ± 0.028	0.319 ± 0.017	0.181 ± 0.029	0.172 ± 0.035	0.275 ± 0.0097	0.263 ± 0.022
